Three molecules from publication PMC9908967 (Nature Communications, 2023) can be followed below.

In experiment [1] the target is T1, α-bungarotoxin (Bungarus multicinctus, UniProt P60615).
T1 construct: source: bought: Latoxan SAS (L8115)
The experiment in a line: SPR. The settings on record: both partners purified.

In experiment [2] the target is α-elapitoxin (Dendroaspis polylepis, UniProt P01396). Nature of the experiment: SPR; BIAcore T100; […]; 10 mM HEPES, 150 mM NaCl, 3 mM EDTA, 0.05% P20, pH 7.4; 40 µL/min; 1:1 Langmuir model, global fit. The settings on record: both partners purified. (In general: Surface plasmon resonance follows binding to a sensor surface in real time, without labels.)
Experiment [3] addresses α-cobratoxin (Naja kaouthia (monocled cobra), UniProt P01391). The experiment is described as above. The note with it: both partners purified.
For experiment [4], the target named is T2, long neurotoxin 2 from O. hannah (Ophiophagus hannah, UniProt A8N285).
T2 construct: source: in SEC fractions of O. hannah whole venom (Latoxan L1357)
The experiment in a line: native MS. The note with it: one partner purified.

Experiment [5] deals with T3, long neurotoxin from N. melanoleuca (Naja melanoleuca, UniProt P0DQQ2).
T3 construct: source: in SEC fractions of N. melanoleuca whole venom (Latoxan L1318)
Nature of the experiment: native MS. The settings on record: one partner purified.

The target in experiment [6] is T4, long neurotoxin 2 from N. melanoleuca (Naja melanoleuca, UniProt P01388).
T4 construct: source: in SEC fractions of N. melanoleuca whole venom (Latoxan L1318)
Nature of the experiment: native MS. The note with it: one partner purified.

Experiment [7] has as its target long neurotoxin 4 from N. naja (Naja naja, UniProt P25672). The experiment in a line: native MS. The settings on record: one partner purified.

B1: 2554_01_D11 Fab (Fab, V domains shown)
VH: QVQLVQSGAEVKKPGSSVKVSCKASGGTFSSYAISWVRQAPGQGLEWMGGIIPIFGTANYAQKFQGRVTITADESTSTAYMELRSLRSDDTAVYYCARDNLGYCSGGSCYSDYYYYYMDVWGQGTLVTVSS
VL: NFMLTQPRSVSESPGKTVTISCTRSSGSIGSDYVHWYQQRPGSSPTTVIYEDNQRPSGVPDRFSGSIDSSSNSASLTISGLKTEDEADYYCQSYDRSNHEVVFGGGTKLTVL
notes: source: Expi293 cells, transient, purified (anti-CH1 resin)
As usually defined, the Kd is the free concentration of one partner at which half of the binding sites on the other are occupied at equilibrium, for simple one-to-one binding. Higher therefore signals lower affinity. Broadly, the koff is the first-order rate constant of dissociation. B1: the binding result in experiment [1] is “binds”. In experiment [2], this molecule came in with a Kd of 1.69 nM and a koff of 0.000177 s⁻¹. Further, in experiment [3], the Kd is 1.78 nM and the koff is 0.000229 s⁻¹.

B2: 2555_01_A01 Fab (Fab, V domains shown)
VH: B1 VH
VL: SYELTQPPSVSVAPGRTATITCEGDNIGQQIVHWYQQKPGQAPVAVISSDSDRPSGIPERFSGSNSGNTATLTISRVEAGDEADYYCQVWDSGSDHVVFGGGTKVTVL
notes: as for B1
In experiment [2], B2 came in with a Kd of 1.81 nM and a koff of 0.000181 s⁻¹. Also, in experiment [3], the Kd came out at 8.41 nM and the dissociation rate constant (koff) turned out to be 0.0017 s⁻¹.

B3: 2554_01_D11 IgG (antibody, V domains shown)
VH: B1 VH
VL: B1 VL
notes: also called IgG 2554_01_D11; copies: 2 + 2
Turning to B3, the binding result in experiment [4], in experiment [5], in experiment [6] and in experiment [7] was “binds” each time.
